Measured values from publication PMC9769556.

B1: RecA of Deinococcus radiodurans (DrRecA), purified (natural protein)
chain: MSKDATKEISAPTDAKERSKAIETAMSQIEKAFGKGSIMKLGAESKLDVQVVSTGSLSLDLALGVGGIPRGRITEIYGPESGGKTTLALAIVAQAQKAGGTCAFIDAEHALDPVYARALGVNTDELLVSQPDNGEQALEIMELLVRSGAIDVVVVDSVAALTPRAEIEGDMGDSLPGLQARLMSQALRKLTAILSKTGTAAIFINQVREKIGVMYGNPETTTGGRALKFYASVRLDVRKIGQPTKVGNDAVANTVKIKTVKNKVAAPFKEVELALVYGKGFDQLSDLVGLAADMDIIKKAGSFYSYGDERIGQGKEKTIAYIAERPEMEQEIRDRVMAAIRAGNAGEAPALAPAPAAPEAAEA

Key:
[1] = tested on: DrDprA (Deinococcus radiodurans R1 (ATCC 13939)); experiment: EMSA; details: EMSA: 10 mM Tris-HCl pH 7.5, 50 mM NaCl, 1 mM DTT, 10 min at 37 C, 2 nM 32P probe
[2] = biological target: DNA processing protein A of Deinococcus radiodurans (DrDprA), purified recombinant wild type (D. radiodurans); experiment: SPR; 2.5 uM DrDprA immobilised on a bare gold sensor chip by EDC-NHS chemistry at 20 C (Autolab Esprit); DrRecA 0.5 to 3 uM in the mobile phase, 20 mM Tris pH 7.6, 1 mM MgCl2

Row | Molecule | Kd [1] [µM] | Kd [2] [µM]
1 | 167-bp dsDNA | 3.53 | 
2 | 167-mer ssDNA | 3.04 | 
3 | B1 |  | 0.293
